The results in this text go back to IntAct's records for PubMed 14732713.

B1: Rho-related GTP-binding protein RhoN (Homo sapiens), P52198 (parent)
chain: MEGQSGRCKIVVVGDAECGKTALLQVFAKDAYPGSYVPTVFENYTASFEIDKRRIELNMWDTSGSSYYDNVRPLAYPDSDAVLICFDISRPETLDSVLKKWQGETQEFCPNAKVVLVGCKLDMRTDLATLRELSKQRLIPVTHEQGTVLAKQVGAVSYVECSSRSSERSVRDVFHVATVASLGRGHRQLRRTDSRRGMQRSAQLSGRPDRGNEGEIHKDRAKSCNLM
partner: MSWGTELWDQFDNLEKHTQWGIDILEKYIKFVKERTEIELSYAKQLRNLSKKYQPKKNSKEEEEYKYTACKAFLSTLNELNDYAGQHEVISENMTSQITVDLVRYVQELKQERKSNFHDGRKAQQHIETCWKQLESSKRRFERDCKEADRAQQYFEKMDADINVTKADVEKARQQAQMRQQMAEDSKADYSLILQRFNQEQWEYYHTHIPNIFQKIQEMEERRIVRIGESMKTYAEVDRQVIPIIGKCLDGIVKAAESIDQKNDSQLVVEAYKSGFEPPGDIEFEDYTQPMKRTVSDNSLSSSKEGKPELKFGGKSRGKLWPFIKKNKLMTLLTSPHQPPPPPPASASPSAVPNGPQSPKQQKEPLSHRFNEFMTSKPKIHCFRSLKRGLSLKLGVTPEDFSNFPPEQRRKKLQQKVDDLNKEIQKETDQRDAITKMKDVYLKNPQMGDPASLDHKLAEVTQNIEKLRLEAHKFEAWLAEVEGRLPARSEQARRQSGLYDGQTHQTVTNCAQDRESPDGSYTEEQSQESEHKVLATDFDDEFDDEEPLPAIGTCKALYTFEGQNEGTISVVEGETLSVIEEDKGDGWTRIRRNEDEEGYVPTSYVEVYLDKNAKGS

The assay covers variants of B1. The following applies: with fnbp1_rat Fnbp1, Q8R511.
As to A16V, the “effect of a mutation on the interaction” value is given as “increasing interaction”.
